According to patent US20210122814A1:
Substitutions are numbered along the chain they refer to.

B1: Ab21 (antibody, V domains shown)
VH: EVQLVESGGGLVQPGGSLRLSCAASGFTFSSFSMDWVRQAPGKGLEWVSYISPDASTIYYADSVKGRFTISRDNAKNSLYLQMNSLRAEDTAVYYCARGVLDYGDMLDPWGQGTLVTVSS
VL: DIQMTQSPSSLSASVGDRVTITCQASQDITNYLNWYQQKPGKAPKLLIYDASNLETGVPSRFSGSGSGTDFTFTISSLQPEDIATYYCQQADNHPPWTFGGGTKVEIK
B2: Ab33 (antibody, V domains shown)
VH: B1 VH with D35N, D54S, S56D, S78T, R98H
VL: B1 VL
B3: Ab31 (antibody, V domains shown)
VH: B1 VH with S78T, G99A
VL: B1 VL
B4: Ab22 (antibody, V domains shown)
VH: B1 VH with S30G, D35N, S52H, P53S
VL: B1 VL
B5: Ab23 (antibody, V domains shown)
VH: B1 VH with D35N, D54S, S56D, S78T
VL: B1 VL
B6: Ab28 (antibody, V domains shown)
VH: B1 VH with A97V
VL: B1 VL
B7: Ab29 (antibody, V domains shown)
VH: B1 VH with G16R, S33A, D35N, D62G, A97V, G99A
VL: B1 VL
B8: Ab24 (antibody, V domains shown)
VH: B1 VH with G16R, S33A, D35Y
VL: B1 VL
B9: Ab27 (antibody, V domains shown)
VH: B1 VH with S31F, F32Y, S33A, D35N
VL: B1 VL
B10: Ab32 (antibody, V domains shown)
VH: B1 VH with D35N, D54S, S56D, S78T, L101W, Y103M
VL: B1 VL
B11: Ab30 (antibody, V domains shown)
VH: B1 VH with V100T
VL: B1 VL
B12: Ab25 (antibody, V domains shown)
VH: B1 VH with S30G
VL: B1 VL
B13: Ab26 (antibody, V domains shown)
VH: B1 VH with S78T
VL: B1 VL
B14: Ab4 (antibody, IgG4, V domains shown)
VH: B1 VH with F32Y, D35N, P53S, D54S, A55S
VL: B1 VL

Molecular target: Cell-associated proTGFβ1 (hGARP-proTGFβ1 and hLRRC33-proTGFβ1)
Assay: BLI (Octet)

How did the Cell AVRG (average KD) turn out when B1 was run?
Its Cell AVRG (average KD) is 0.644 nM.

Which Cell AVRG (average KD) does the source give for B2 here?
Its Cell AVRG (average KD) is 0.302 nM.

For B3, which Cell AVRG (average KD) is on record?
Its Cell AVRG (average KD) is 0.495 nM.

B4 was tested. Which Cell AVRG (average KD) did it give?
Its Cell AVRG (average KD) is 0.695 nM.

Which Cell AVRG (average KD) does the source give for B5 here?
The Cell AVRG (average KD) was 0.897 nM.

For B6, which Cell AVRG (average KD) is on record?
The Cell AVRG (average KD) was 0.603 nM.

For B7, which Cell AVRG (average KD) is on record?
The Cell AVRG (average KD) was 0.304 nM.

How did the Cell AVRG (average KD) turn out when B8 was run?
The Cell AVRG (average KD) was 0.537 nM.

Which Cell AVRG (average KD) does the source give for B9 here?
Its Cell AVRG (average KD) is 0.361 nM.

For B10, which Cell AVRG (average KD) is on record?
The Cell AVRG (average KD) was 0.597 nM.

How did the Cell AVRG (average KD) turn out when B11 was run?
Its Cell AVRG (average KD) is 0.684 nM.

With B12 as the binder, how does the Cell AVRG (average KD) read?
Its Cell AVRG (average KD) is 0.449 nM.

For B13, which Cell AVRG (average KD) is on record?
Its Cell AVRG (average KD) is 0.492 nM.

Molecular target: Matrix-associated proTGFβ1 (hLTBP1-proTGFβ1 and hLTBP3-proTGFβ1)
Assay: BLI (Octet)

With B1 as the binder, how does the ECM AVRG (average KD) read?
The ECM AVRG (average KD) was 0.246 nM.

B2 was tested. Which ECM AVRG (average KD) did it give?
The ECM AVRG (average KD) was 0.145 nM.

For B3, which ECM AVRG (average KD) is on record?
Its ECM AVRG (average KD) is 0.208 nM.

With B4 as the binder, how does the ECM AVRG (average KD) read?
Its ECM AVRG (average KD) is 0.324 nM.

How did the ECM AVRG (average KD) turn out when B5 was run?
Its ECM AVRG (average KD) is 0.443 nM.

B6 was tested. Which ECM AVRG (average KD) did it give?
The ECM AVRG (average KD) was 0.328 nM.

For B7, which ECM AVRG (average KD) is on record?
Its ECM AVRG (average KD) is 0.155 nM.

For B8, which ECM AVRG (average KD) is on record?
The ECM AVRG (average KD) was 0.222 nM.

For B9, which ECM AVRG (average KD) is on record?
The ECM AVRG (average KD) was 0.208 nM.

With B10 as the binder, how does the ECM AVRG (average KD) read?
Its ECM AVRG (average KD) is 0.242 nM.

How did the ECM AVRG (average KD) turn out when B11 was run?
The ECM AVRG (average KD) was 0.296 nM.

With B12 as the binder, how does the ECM AVRG (average KD) read?
Its ECM AVRG (average KD) is 0.184 nM.

How did the ECM AVRG (average KD) turn out when B13 was run?
The ECM AVRG (average KD) was 0.197 nM.

Molecular target: Cell-associated proTGFβ1 (hGARP-proTGFβ1 and hLRRC33-proTGFβ1)
Assay: MSD-SET, hIgG4

With B2 as the binder, how does the Cell AVRG (average KD) read?
The Cell AVRG (average KD) was 0.027 nM.

With B3 as the binder, how does the Cell AVRG (average KD) read?
The Cell AVRG (average KD) was 0.058 nM.

How did the Cell AVRG (average KD) turn out when B4 was run?
Its Cell AVRG (average KD) is 0.114 nM.

Which Cell AVRG (average KD) does the source give for B14 here?
The Cell AVRG (average KD) was 2.3 nM.

B7 was tested. Which Cell AVRG (average KD) did it give?
The Cell AVRG (average KD) was 0.024 nM.

Which Cell AVRG (average KD) does the source give for B8 here?
Its Cell AVRG (average KD) is 0.1 nM.

How did the Cell AVRG (average KD) turn out when B10 was run?
The Cell AVRG (average KD) was 0.051 nM.

For B11, which Cell AVRG (average KD) is on record?
Its Cell AVRG (average KD) is 0.081 nM.

For B13, which Cell AVRG (average KD) is on record?
The Cell AVRG (average KD) was 0.072 nM.

Molecular target: Matrix-associated proTGFβ1 (hLTBP1-proTGFβ1 and hLTBP3-proTGFβ1)
Assay: MSD-SET, hIgG4

Which ECM AVRG (average KD) does the source give for B2 here?
The ECM AVRG (average KD) was 0.009 nM.

How did the ECM AVRG (average KD) turn out when B3 was run?
Its ECM AVRG (average KD) is 0.017 nM.

Which ECM AVRG (average KD) does the source give for B4 here?
The ECM AVRG (average KD) was 0.042 nM.

B14 was tested. Which ECM AVRG (average KD) did it give?
The ECM AVRG (average KD) was 5.05 nM.

B7 was tested. Which ECM AVRG (average KD) did it give?
The ECM AVRG (average KD) was 0.012 nM.

How did the ECM AVRG (average KD) turn out when B8 was run?
Its ECM AVRG (average KD) is 0.023 nM.

Which ECM AVRG (average KD) does the source give for B10 here?
The ECM AVRG (average KD) was 0.032 nM.

B11 was tested. Which ECM AVRG (average KD) did it give?
Its ECM AVRG (average KD) is 0.029 nM.

With B13 as the binder, how does the ECM AVRG (average KD) read?
The ECM AVRG (average KD) was 0.026 nM.

Molecular target: Cell-associated proTGFβ1 (hGARP-proTGFβ1 and hLRRC33-proTGFβ1)
Assay: BLI (Octet); Cell AVRG over ECM AVRG

Which G/D (fold bias) does the source give for B1 here?
The G/D (fold bias) was 2.61 fold.

For B2, which G/D (fold bias) is on record?
The G/D (fold bias) was 2.08 fold.

Which G/D (fold bias) does the source give for B3 here?
The G/D (fold bias) was 2.38 fold.

B4 was tested. Which G/D (fold bias) did it give?
The G/D (fold bias) was 2.15 fold.

With B5 as the binder, how does the G/D (fold bias) read?
The G/D (fold bias) was 2.03 fold.

With B6 as the binder, how does the G/D (fold bias) read?
The G/D (fold bias) was 1.84 fold.

Which G/D (fold bias) does the source give for B7 here?
The G/D (fold bias) was 1.97 fold.

For B8, which G/D (fold bias) is on record?
Its G/D (fold bias) is 2.42 fold.

For B9, which G/D (fold bias) is on record?
Its G/D (fold bias) is 1.74 fold.

Which G/D (fold bias) does the source give for B10 here?
The G/D (fold bias) was 2.47 fold.

With B11 as the binder, how does the G/D (fold bias) read?
The G/D (fold bias) was 2.31 fold.

Which G/D (fold bias) does the source give for B12 here?
The G/D (fold bias) was 2.43 fold.

With B13 as the binder, how does the G/D (fold bias) read?
The G/D (fold bias) was 2.5 fold.

Molecular target: Cell-associated proTGFβ1 (hGARP-proTGFβ1 and hLRRC33-proTGFβ1)
Assay: MSD-SET, hIgG4; Cell AVRG over ECM AVRG

B2 was tested. Which G/D (fold bias) did it give?
The G/D (fold bias) was 3 fold.

How did the G/D (fold bias) turn out when B3 was run?
The G/D (fold bias) was 3.41 fold.

Which G/D (fold bias) does the source give for B4 here?
The G/D (fold bias) was 2.71 fold.

For B14, which G/D (fold bias) is on record?
Its G/D (fold bias) is 0.42 fold.

For B7, which G/D (fold bias) is on record?
Its G/D (fold bias) is 2 fold.

Which G/D (fold bias) does the source give for B8 here?
The G/D (fold bias) was 4.35 fold.

With B10 as the binder, how does the G/D (fold bias) read?
The G/D (fold bias) was 1.6 fold.

With B11 as the binder, how does the G/D (fold bias) read?
The G/D (fold bias) was 2.8 fold.

B13 was tested. Which G/D (fold bias) did it give?
The G/D (fold bias) was 2.77 fold.
